Among the data in the Human Domainome abundance scans (Beltran et al. 2025) are abundance fitness values, retold here.

± gives the uncertainty stated by the source.

This data set can be described thus: abundance fitness (aPCA) (normalised: wild type 0, dead -1); higher = more abundant; growth selection in yeast, the domain comes from the species named. The conditions noted are these: Homo sapiens.
“DnaJ homolog subfamily B member 1 D53Q, P25685” displayed an abundance fitness of -0.279 ± 0.097.

Consider “DnaJ homolog subfamily B member 1 D53R, P25685”, for which the abundance fitness is -0.132 ± 0.14.

For “DnaJ homolog subfamily B member 1 D53T, P25685”, the abundance fitness was 0.032 ± 0.086. Next, “DnaJ homolog subfamily B member 1 D53V, P25685”: -0.013 ± 0.093; “DnaJ homolog subfamily B member 1 D53W, P25685”: -0.405 ± 0.12. Turning to “DnaJ homolog subfamily B member 1 D53Y, P25685”, the abundance fitness is -0.356 ± 0.077. As for “DnaJ homolog subfamily B member 1 D57A, P25685”, the abundance fitness was -0.269 ± 0.088. Next, “DnaJ homolog subfamily B member 1 D57C, P25685”: -0.09 ± 0.098; “DnaJ homolog subfamily B member 1 D57E, P25685”: -0.269 ± 0.14. Next, “DnaJ homolog subfamily B member 1 D57F, P25685”: -0.668 ± 0.17; “DnaJ homolog subfamily B member 1 D57G, P25685”: -0.298 ± 0.11. The result for “DnaJ homolog subfamily B member 1 D57I, P25685” reads -0.637 ± 0.22; that for “DnaJ homolog subfamily B member 1 D57K, P25685”, -0.123 ± 0.13; that for “DnaJ homolog subfamily B member 1 D57L, P25685”, -0.53 ± 0.061. “DnaJ homolog subfamily B member 1 D57M, P25685” gave an abundance fitness of -0.366 ± 0.084.

In the case of “DnaJ homolog subfamily B member 1 D57N, P25685”, the abundance fitness was -0.071 ± 0.29. The result for “DnaJ homolog subfamily B member 1 D57P, P25685” reads -0.715 ± 0.19. Regarding “DnaJ homolog subfamily B member 1 D57R, P25685”, the abundance fitness was -0.416 ± 0.072.

Take “DnaJ homolog subfamily B member 1 D57S, P25685”: the abundance fitness is -0.097 ± 0.076. The result for “DnaJ homolog subfamily B member 1 D57T, P25685” reads -0.072 ± 0.089. The result for “DnaJ homolog subfamily B member 1 D57V, P25685” reads -0.317 ± 0.098; that for “DnaJ homolog subfamily B member 1 D57W, P25685”, -0.812 ± 0.2. Next, “DnaJ homolog subfamily B member 1 D57Y, P25685”: -0.45 ± 0.11; “DnaJ homolog subfamily B member 1 D65A, P25685”: -0.123 ± 0.078; “DnaJ homolog subfamily B member 1 D65E, P25685”: -0.152 ± 0.2. The substance “DnaJ homolog subfamily B member 1 D65F, P25685” yielded an abundance fitness of -0.275 ± 0.18. Next, “DnaJ homolog subfamily B member 1 D65G, P25685”: -0.197 ± 0.11; “DnaJ homolog subfamily B member 1 D65I, P25685”: -0.387 ± 0.1. Next, “DnaJ homolog subfamily B member 1 D65L, P25685”: -0.116 ± 0.085; “DnaJ homolog subfamily B member 1 D65M, P25685”: -0.162 ± 0.13; “DnaJ homolog subfamily B member 1 D65N, P25685”: -0.222 ± 0.19. Next, “DnaJ homolog subfamily B member 1 D65P, P25685”: -0.164 ± 0.11; “DnaJ homolog subfamily B member 1 D65Q, P25685”: -0.124 ± 0.11. The substance “DnaJ homolog subfamily B member 1 D65R, P25685” had an abundance fitness of -0.163 ± 0.1. Next, “DnaJ homolog subfamily B member 1 D65S, P25685”: -0.158 ± 0.18; “DnaJ homolog subfamily B member 1 D65T, P25685”: -0.228 ± 0.11; “DnaJ homolog subfamily B member 1 D65V, P25685”: -0.262 ± 0.1.

Turning to “DnaJ homolog subfamily B member 1 D65W, P25685”, the abundance fitness was -0.358 ± 0.19. In turn, “DnaJ homolog subfamily B member 1 D65Y, P25685” had an abundance fitness of -0.261 ± 0.13. Next, “DnaJ homolog subfamily B member 1 E18A, P25685”: -0.067 ± 0.074; “DnaJ homolog subfamily B member 1 E18D, P25685”: 0.034 ± 0.16; “DnaJ homolog subfamily B member 1 E18G, P25685”: -0.162 ± 0.066. Next, “DnaJ homolog subfamily B member 1 E18H, P25685”: -0.066 ± 0.28. Next, “DnaJ homolog subfamily B member 1 E18I, P25685”: -0.173 ± 0.14; “DnaJ homolog subfamily B member 1 E18K, P25685”: -0.205 ± 0.11. “DnaJ homolog subfamily B member 1 E18L, P25685” displayed an abundance fitness of -0.21 ± 0.071. As to “DnaJ homolog subfamily B member 1 E18M, P25685”, the abundance fitness was -0.188 ± 0.074. The result for “DnaJ homolog subfamily B member 1 E18N, P25685” reads -0.045 ± 0.18; that for “DnaJ homolog subfamily B member 1 E18Q, P25685”, -0.231 ± 0.083; that for “DnaJ homolog subfamily B member 1 E18S, P25685”, -0.093 ± 0.074. Next, “DnaJ homolog subfamily B member 1 E18T, P25685”: -0.081 ± 0.15; “DnaJ homolog subfamily B member 1 E18V, P25685”: -0.209 ± 0.061. Next, “DnaJ homolog subfamily B member 1 E18W, P25685”: -0.268 ± 0.061; “DnaJ homolog subfamily B member 1 E19A, P25685”: 0.022 ± 0.08.

“DnaJ homolog subfamily B member 1 E19C, P25685” displayed an abundance fitness of -0.291 ± 0.12.

Regarding “DnaJ homolog subfamily B member 1 E19D, P25685”, the abundance fitness is -0.089 ± 0.092. Substance “DnaJ homolog subfamily B member 1 E19F, P25685” came in with an abundance fitness of -1.06 ± 0.08. Next, “DnaJ homolog subfamily B member 1 E19G, P25685”: -0.539 ± 0.078; “DnaJ homolog subfamily B member 1 E19H, P25685”: -0.363 ± 0.14; “DnaJ homolog subfamily B member 1 E19I, P25685”: -0.659 ± 0.12.

Regarding “DnaJ homolog subfamily B member 1 E19K, P25685”, the abundance fitness was -0.396 ± 0.099. Next, “DnaJ homolog subfamily B member 1 E19L, P25685”: -0.32 ± 0.069; “DnaJ homolog subfamily B member 1 E19M, P25685”: -0.199 ± 0.1; “DnaJ homolog subfamily B member 1 E19N, P25685”: -0.273 ± 0.11.

On to “DnaJ homolog subfamily B member 1 E19P, P25685”, for which the abundance fitness was -1.29 ± 0.11. The substance “DnaJ homolog subfamily B member 1 E19Q, P25685” registered an abundance fitness of 0.118 ± 0.12.
